In experiment [1] the target is s-dEGFRΔV (Drosophila EGF receptor extracellular region, domains I to IV) (Drosophila melanogaster). The experiment can be described thus: AUC.
The target of experiment [2] is s-dEGFRΔV/Spitz complex (Drosophila melanogaster) (UniProt Q01083). The experiment can be described thus: AUC.

The Kd is the equilibrium constant for the complex coming apart. As for “s-dEGFRΔV (Drosophila EGF receptor extracellular region, domains I to IV) (domain or fragment)”, the dissociation constant Kd in experiment [1] was 40 µM.

As usually defined, the stoichiometry N is a count of units in the complex or per binding partner. In the case of “s-dEGFRΔV/Spitz complex (from UniProt Q01083 29-143)”, the stoichiometry N in experiment [2] was 2.

The record behind these values is article PMC2762480.
